# Measured values: the RNAGym collection of RNA variant scans (doi:10.1021/acssynbio.7b00057)
# B1: Pistol ribozyme (parent)
# chain: GGGUCGUUGUUCCAUAAUCGCGUGGAUAUGGCACGCAAGUUUCUACCGGGCACCGUAAAUGUCCGACUGGAGCCGUUCGGGCGGCUAUAAACAGACCUCAGGCCCGAAGCGUGGCGGCACCUGCCGCCGGUGGUAAAAAAGAUCGGAAGAGCACACGUCU
# Variants of: B1
# Assay: aptazyme ON/OFF ratio, guanine; higher = stronger switching; co-transcriptional cleavage with and without guanine
row,Variant,aptazyme ON/OFF ratio
1,U7A U8C U11A C12G,1.16
2,U7A U8C U11A C12U,1.23
3,U7A U8C U11A C12U C13U,1.28
4,U7A U8C U11A C12U C13A,1.15
5,U7A U8C U11A C12U C13G,1.24
6,U7A U8C G9U U10G U11A C12A C13A,1.04
7,U7A U8C G9U U10G U11A C12A C13G,1.13
8,U7A U8C G9U U10G U11A C12A C13U,1.41
9,U7A U8C U10A U11A C13A,1.2
10,U7A U8C U10A U11A C13U,1.12
11,U7A U8C U10A U11A C13G,1.29
12,U7A U8C U10A U11G C12G C13A,1.36
13,U7A U8C U10A U11G C12G C13U,1.45
14,U7A U8C U10A U11G C12G C13G,1.28
15,U7A U8C U10C U11A C12G C13G,1.22
16,U7A U8C U10C U11A C12G C13U,1.21
17,U7A U8C U10C U11A C12G C13A,1.17
18,U7A U8C U10G U11G C12G C13G,1.19
19,U7A U8C U10G U11G C12G C13U,1.4
20,U7A U8C U10G U11G C12G C13A,1.08
21,U7A U8C U10G U11G C12G,1.04
22,U7A U8C U10G U11G C12A,1.25
23,U7A U8C U10G U11G C12U,1.34
24,U7A U8C U10A U11C,1.03

row,Variant,aptazyme ON/OFF ratio
1,U7A U8C U10A U11A,1.18
2,U7A U8C U10A U11G,1.17
3,U7A U8C U10A U11C C12U C13U,1.05
4,U7A U8C U10A U11C C12U C13A,1.07
5,U7A U8C U10A U11C C12U C13G,1.07
6,U7A U8C U10C C12G C13A,1.34
7,U7A U8C U10C C12G C13U,1.41
8,U7A U8C U10C C12G C13G,1.22
9,U7A U8C U10A U11G C12U C13A,1.28
10,U7A U8C U10A U11G C12U C13G,1.16
11,U7A U8C U10A U11G C12U C13U,1.26
12,U7A U8C U10G U11C C12G,2.72
13,U7A U8C U10G U11C C12U,1.28
14,U7A U8C U10G U11C C12A,2.43
15,U7A U8C U10G C12U C13A,1.21
16,U7A U8C U10G C12U C13U,1.34
17,U7A U8C U10G C12U C13G,1.14
18,U7A U8C G9U U10G U11G C12A C13G,1.11
19,U7A U8C G9U U10G U11G C12A C13A,1.12
20,U7A U8C G9U U10G U11G C12A C13U,1.37
21,U7A U8C U10C C13A,1.08
22,U7A U8C U10C C13U,2.97
23,U7A U8C U10C C13G,1.32
24,U7A U8C G9U U11A C13G,1.07

row,Variant,aptazyme ON/OFF ratio
1,U7A U8C G9U U11A C13U,1.28
2,U7A U8C G9U U11A C13A,1.13
3,U7A U8C U10C C12U C13A,1.17
4,U7A U8C U10C C12U C13G,1.26
5,U7A U8C U10C C12U C13U,1.38
6,U7A U8C U10A U11A C12G,1.23
7,U7A U8C U10A U11A C12A,1.17
8,U7A U8C U10A U11A C12U,1.18
9,U7A U8C G9U U10G U11G C12U C13A,1.07
10,U7A U8C G9U U10G U11G C12U C13G,1.11
11,U7A U8C G9U U10G U11G C12U C13U,1.16
12,U7A U8C U10G U11G C13G,1.2
13,U7A U8C U10G U11G C13A,1.2
14,U7A U8C U10G U11G C13U,1.39
15,U7A U8C U10A C12G C13U,1.26
16,U7A U8C U10A C12G C13A,1.09
17,U7A U8C U10A C12G C13G,1.23
18,U7A U8C U10A U11A C12U C13G,1.33
19,U7A U8C U10A U11A C12U C13A,1.18
20,U7A U8C U10A U11A C12U C13U,1.17
21,U7A U8C G9U U10G U11C,1.03
22,U7A U8C G9U U10G U11A,1.06
23,U7A U8C G9U U10G U11G,1.11
24,U7A U8C U10C C12U,3.63

row,Variant,aptazyme ON/OFF ratio
1,U7A U8C U10C C12A,1.32
2,U7A U8C U10C C12G,1.46
3,U7A U8C U10A U11C C12A C13U,1.08
4,U7A U8C U10A U11C C12A C13A,1.07
5,U7A U8C U10A U11C C12A C13G,1.17
6,U7A U8C U10C U11A C12A C13A,1.18
7,U7A U8C U10C U11A C12A C13G,1.15
8,U7A U8C U10C U11A C12A C13U,1.21
9,U7A U8C U11C C12U C13A,1.28
10,U7A U8C U11C C12U C13G,1.29
11,U7A U8C U11C C12U C13U,1.29
12,U7A U8C G9U U10G C12A C13A,1.45
13,U7A U8C G9U U10G C12A C13G,1.18
14,U7A U8C G9U U10G C12A C13U,1.07
15,U7A U8C U10C U11A C12U C13G,1.19
16,U7A U8C U10C U11A C12U C13A,1.21
17,U7A U8C U10C U11A C12U C13U,1.27
18,U7A U8C U10G U11C C12G C13U,1.57
19,U7A U8C U10G U11C C12G C13A,1.45
20,U7A U8C U10G U11C C12G C13G,1.17
21,U7A U8C G9U U11A C12A C13G,1.24
22,U7A U8C G9U U11A C12A C13A,1.42
23,U7A U8C G9U U11A C12A C13U,1.33
24,U7A U8C U10G U11G C12A C13U,1.34

row,Variant,aptazyme ON/OFF ratio
1,U7A U8C U10G U11G C12A C13G,1.15
2,U7A U8C U10G U11G C12A C13A,1.14
3,U7A U8C U11C C12G C13G,1.22
4,U7A U8C U11C C12G C13U,1.5
5,U7A U8C U11C C12G C13A,1.32
6,U7A U8C G9U U10G U11C C12A C13A,1.14
7,U7A U8C G9U U10G U11C C12A C13G,1.15
8,U7A U8C G9U U10G U11C C12A C13U,1.26
9,U7A U8C G9U U10G U11A C12G C13A,1.22
10,U7A U8C G9U U10G U11A C12G C13U,1.21
11,U7A U8C G9U U10G U11A C12G C13G,0.993
12,U7A U8C G9U U11A C12A,1.32
13,U7A U8C G9U U11A C12U,1.28
14,U7A U8C G9U U11A C12G,1.23
15,U7A U8C U10A U11G C12U,1.27
16,U7A U8C U10A U11G C12G,1.32
17,U7A U8C U10A U11G C12A,1.1
18,U7A U8C U10A U11G C13U,1.31
19,U7A U8C U10A U11G C13A,1.26
20,U7A U8C U10A U11G C13G,1.24
21,U7A U8C G9U U11G C12G C13U,1.07
22,U7A U8C G9U U11G C12G C13G,1.16
23,U7A U8C G9U U11G C12G C13A,1.22
24,U7A U8C U10G C13U,1.31

row,Variant,aptazyme ON/OFF ratio
1,U7A U8C U10G C13G,1.24
2,U7A U8C U10G C13A,1.4
3,U7A U8C G9U U11C C12U C13U,1.17
4,U7A U8C G9U U11C C12U C13G,1.04
5,U7A U8C G9U U11C C12U C13A,1.12
6,U7A U8C G9U U11G,1.29
7,U7A U8C G9U U11C,1.1
8,U7A U8C G9U U11A,1.19
9,U7A U8C G9U U11C C12G,1.27
10,U7A U8C G9U U11C C12A,1.28
11,U7A U8C G9U U11C C12U,1.15
12,U7A U8C U10A U11C C12G C13G,1.27
13,U7A U8C U10A U11C C12G C13U,1.13
14,U7A U8C U10A U11C C12G C13A,1.08
15,U7A U8C G9U U11C C12G C13A,1.13
16,U7A U8C G9U U11C C12G C13U,1.18
17,U7A U8C G9U U11C C12G C13G,1.05
18,U7A U8C G9U U10G U11A C13G,1.08
19,U7A U8C G9U U10G U11A C13U,1.06
20,U7A U8C G9U U10G U11A C13A,1.04
21,U7A U8C G9U U10G U11G C12G C13U,1.29
22,U7A U8C G9U U10G U11G C12G C13G,1.22
23,U7A U8C G9U U10G U11G C12G C13A,1.15
24,U7A U8C U10G U11A C12A C13G,1.15

row,Variant,aptazyme ON/OFF ratio
1,U7A U8C U10G U11A C12A C13A,1.28
2,U7A U8C U10G U11A C12A C13U,1.32
3,U7A U8C G9U U11C C12A C13A,1.18
4,U7A U8C G9U U11C C12A C13U,1.2
5,U7A U8C G9U U11C C12A C13G,1.1
6,U7A U8C G9U U10G C13A,1.34
7,U7A U8C G9U U10G C13U,1.24
8,U7A U8C G9U U10G C13G,1.16
9,U7A U8C U11A C13A,1.14
10,U7A U8C U11A C13U,1.15
11,U7A U8C U11A C13G,1.13
12,U7A U8C U10C U11C C12U C13A,1.06
13,U7A U8C U10C U11C C12U C13U,1.07
14,U7A U8C U10C U11C C12U C13G,1.23
15,U7A U8C U10G C12A C13G,1.05
16,U7A U8C U10G C12A C13A,1.13
17,U7A U8C U10G C12A C13U,1.15
18,U7A U8C U10A U11C C12U,1.03
19,U7A U8C U10A U11C C12A,1.09
20,U7A U8C U10A U11C C12G,1.1
21,U7A U8C U10G U11G C12U C13A,1.23
22,U7A U8C U10G U11G C12U C13G,1.23
23,U7A U8C U10G U11G C12U C13U,1.24
